Measurements published in US20220056142A1 (Sanofi, published 2022).
Positions count from the first letter of the chain named.

B1: KE35 (antibody, V domains shown)
VH: EVQLQQSGPELVKPGASVKMSCKASGYTFTDYNMHWVKQSHGKSLEWIGYINPNNGGTRYNQKFKGKATLTVNKSSSTAYMELRSLTSEDSAVYYCARERDYDGAMDYWGQGTSVTVSS
VL: DIQMTQSPSSLSASLGGKVTITCKASQDINKFIAWYQHKPGKGPRLLIHYTSTLQPGIPSRFSGSGSGRDYSFSISNLEPEDIATYYCLQYDNLLWTFGGGTKLEIK
notes: Mouse hybridoma monoclonal antibody
B2: KE42 (antibody, V domains shown)
VH: B1 VH with E46Q, R59N, K63N, G66D, S77T, A105S, Y108F
VL: B1 VL with Y87F
notes: as for B1
B3: KC18 (antibody, V domains shown)
VH: QVQLQQSGAELVRPGASVTLSCKASGDTFTDFEIHWVKQTPVHGLEWIGDIDPETGGTAYNQKFRGRAMLTADRSSSTAYMELRSLTSEDSAVYYCTRTYDGYPYAMDYWGQGTSVTVSS
VL: DIVMSQSPSSLAVSVGEKVTMSCKSSQSLLYSNNQKNYLAWYQQKPGQSPKLLIYWASTRESGVPDRFTGSGSGTDFTLTISSVKAEDLAVYYCQQYYSYRTFGGGTKLEIKR
B4: KC18_Hu46 (antibody, human IgG1, kappa, V domains shown)
VH: EVQLVQSGAEVKKPGATVKLSCKASGDTFTDFEIHWVQQAPGKGLEWIGDVDPETGGTAYAEKFQGRATLTADRSTDTAYLELSSLRSEDTAVYYCTRTYDGYPYAFDYWGQGTLVTVSS
VL: DIVMTQSPDSLAVSLGERVTINCKSSQSVLYSDNQKNYLAWYQQKPGQSPKLLIYFASTRESGVPDRFSGSGSGTDFTLTISSVQAEDVAVYYCQQYYSYRTFGGGTKLEIKR
B5: KC18_Hu18 (antibody, human IgG1, kappa, V domains shown)
VH: B4 VH with L81M
VL: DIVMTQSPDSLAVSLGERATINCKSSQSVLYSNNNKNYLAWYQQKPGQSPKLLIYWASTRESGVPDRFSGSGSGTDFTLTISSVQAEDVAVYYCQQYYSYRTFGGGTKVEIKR
B6: KC18_Hu44 (antibody, human IgG1, kappa, V domains shown)
VH: B4 VH
VL: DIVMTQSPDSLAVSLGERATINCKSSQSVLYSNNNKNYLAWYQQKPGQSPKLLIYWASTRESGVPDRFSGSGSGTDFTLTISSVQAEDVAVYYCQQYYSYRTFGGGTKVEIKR
B7: KE58 (antibody, V domains shown)
VH: EVQLQQSGPDLVKPGASVKISCKASGYTVTDYYMNWVKQSHGKSLEWIGDINPNNGVTTYNQKFKDKATLTVDKSSSTAYMELRSLTSEDSAVYYCAREEDFDGFDYWGQGTTLTVSS
VL: DIVMTQSHKFMSTSVGDRVSITCKASQDVSTGVAWYQQKPGQSPQLLIYWASTRHTGVPDRFTGSGSGTDYILTIRSVQAEDLALYYCQQHYSTPLTFGAGTKLELK
notes: as for B1
B8: KE94 (antibody, V domains shown)
VH: QVQLQQSGAELVRPGASVTLSCKASGSTFTDFEIHWVKQTPVHGLEWIGAIDPETGGTAYNQKFKGKAILTAVKSSSTAYMGLRSLTSEDSAVYYCTRNYDGYSRTMDYWGQGTSVTVSS
VL: NIMMTQSPSSLAVSAGEKVTMSCKSSQSVLYSSNQKNYLAWYQQKPGQSPKLLIYWASTRESGVPDRFTGSGSGTDFSLSISSVQTEDLAVYYCHQYLSSYTFGGGTRLEMK
notes: as for B1

How the values were obtained:
[1] = target: T1, human FGFR3 G380R isoform IIIc, full length, expressed on transfected cells (human, UniProt P22607 23-806); assay: FACS, cells transfected with mutant FGFR3 (G380R)
T1 construct: also called mutant FGFR3; FGFR3^G380R-300.19
Procedure: (§1) After three washes, the cells were incubated with a fluorescent-conjugated secondary antibody (Invitrogen).

[2] = target: T2, wild-type human FGFR3 isoform IIIc, full length, expressed on transfected cells (human, UniProt P22607 23-806); assay: FACS, cells transfected with wild-type FGFR3
T2 construct: also called wild-type FGFR3; FGFR3-300.19
Procedure: as §1

[3] = target: T3, FGFR3 fused to β-galactosidase fragments (FGFR3-PK and FGFR3-EA) co-expressed in U2OS cells; assay: cell-based or functional assay
WT PRCs [4] = target: T4, WT PRCs (mouse, UniProt Q61851); assay: cell-based or functional assay
WT PRCs [5] = target: T4, WT PRCs; assay: cell-based or functional assay; remark: listed apart in the source
WT PRCs [6] = target: T4, WT PRCs; assay: cell-based or functional assay; remark: listed apart in the source
[7] = target: T3, FGFR3 fused to β-galactosidase …; assay: cell-based or functional assay; remark: listed apart in the source
[8] = target: T3, FGFR3 fused to β-galactosidase …; assay: cell-based or functional assay; remark: listed apart in the source

| Binder | binding result [1] | binding result [2] | also measured |
| --- | --- | --- | --- |
| B1 | binds | binds |  |
| B2 | binds | binds |  |
| B3 |  |  | EC50, inhibition of FGF18-induced FGFR3 dimerization (RLU, beta-galactosidase complementation in U2OS cells); table column 'KC18 with FGF' [3]: 0.521 µg/mL |
| B4 |  |  | IC50, inhibition of FGF18-stimulated Erk phosphorylation (pErk/Erk %, HTRF), 'Hu46 on WT PRCs' (WT PRCs [4]): 0.55 µg/ml |
| B5 |  |  | IC50, inhibition of FGF18-stimulated Erk phosphorylation (pErk/Erk %, HTRF), 'Hu18 on WT PRCs' (WT PRCs [5]): 0.42 µg/ml |
| B6 |  |  | IC50, inhibition of FGF18-stimulated Erk phosphorylation (pErk/Erk ratio %, HTRF), 'Hu44 on WT PRCs' (WT PRCs [6]): 0.32 µg/ml |
| B7 | binds | binds | EC50, inhibition of FGF18-induced FGFR3 dimerization (RLU, beta-galactosidase complementation in U2OS cells); fitted curve 'KE58 with FGF18' [7]: 0.423 µg/mL |
| B8 | binds | binds | EC50, inhibition of FGF18-induced FGFR3 dimerization (RLU, beta-galactosidase complementation in U2OS cells); fitted curve 'KE94 with FGF18' [8]: 0.102 µg/mL |
